Results on 4 molecules are retold here after patent US20190016809A1 (MONASH UNIVERSITY, published 2019).

Residue numbers refer to the chain shown, from its start.

The target in assay [1] is T1, biotinylated peptide corresponding to the second extracellular loop of human CXCR2 (human, UniProt P25025 184-208, limits assumed, biotinylated (position not given)).
T1 construct: domain: second extracellular loop; also called 2nd loop
T1 peptide (looked up): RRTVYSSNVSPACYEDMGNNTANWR
As to the kind of experiment: ELISA on biotinylated peptide captured on streptavidin. The protocol:
(§1) Epitope mapping studies were performed to determine the region within CXCR2 that is recognized by anti-CXCR2 mAb. Initially, biotinylated peptides corresponding to the N-terminal region and the first, second and third extracellular loops of human CXCR2 were used in an ELISA.
(§2) Three overlapping biotinylated peptides spanning the entire N-terminal region of human CXCR2 were then synthesized and used in more defined anti-CXCR2 mAb epitope mapping studies. Peptide 1 ([…]) (SEQ ID NO:53) corresponds to amino acid position 1-21 of the human CXCR2; Peptide 2 ([…]) (SEQ ID NO:55) corresponds to amino acid position 10-31 and Peptide 3 ([…]) (SEQ ID NO:54) corresponds to amino acid 20-46 position of the human CXCR2. Briefly, multiwell plates were coated with streptavidin and washed before the biotinylated peptides were added to separate wells and incubated to facilitate binding of the peptides to the plate. Different anti-human CXCR2 antibodies were then tested by adding the respective antibodies to the wells of the plate and incubating the plate. An isotype control and buffer only were included as negative controls. Following washing, appropriate conjugated antibodies were added and the plates were incubated. The plates were washed again and binding of the antibodies to the immobilised peptides was visualised.
A general note: ELISA stands for enzyme-linked immunosorbent assay.

The target of a further assay is T2, Peptide 2 (human, biotinylated (position not given)).
T2 construct: Biotinylated peptide of the human CXCR2 N-terminal region, captured on streptavidin plates; also called Nter-2; Peptide 2/Nter-2
T2 peptide: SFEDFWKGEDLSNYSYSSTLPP
The description is as above. On the procedure:
as §1, §2

For a further assay, the target named is T3, Peptide 1 (human, biotinylated (position not given)).
T3 construct: Biotinylated peptide of the human CXCR2 N-terminal region, captured on streptavidin plates; also called Nter-1; Peptide 1/Nter-1
T3 peptide: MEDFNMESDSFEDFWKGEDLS
Described as above. On the procedure:
as §1, §2

For the next assay, the target named is T4, Peptide 3 (human, biotinylated (position not given)).
T4 construct: Biotinylated peptide of the human CXCR2 N-terminal region; also called Nter-3; Peptide 3/Nter-3
T4 peptide: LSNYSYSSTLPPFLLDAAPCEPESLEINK
Described as above. The protocol:
as §1, §2

In assay [2] the target is T5, human CXCR2 (human, UniProt P25025 1-360).
T5 construct: also called hCXCR2; C-X-C motif chemokine receptor 2
T5 sequence: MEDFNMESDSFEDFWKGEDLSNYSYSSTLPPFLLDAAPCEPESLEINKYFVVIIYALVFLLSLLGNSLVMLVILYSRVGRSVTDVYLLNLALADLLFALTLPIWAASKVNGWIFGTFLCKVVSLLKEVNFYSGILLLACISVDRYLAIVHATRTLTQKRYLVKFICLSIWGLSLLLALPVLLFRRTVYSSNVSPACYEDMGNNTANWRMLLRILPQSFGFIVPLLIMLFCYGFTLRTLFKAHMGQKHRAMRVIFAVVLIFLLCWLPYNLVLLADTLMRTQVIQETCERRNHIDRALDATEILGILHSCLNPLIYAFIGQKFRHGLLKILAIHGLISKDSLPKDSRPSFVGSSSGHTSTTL
The assay can be described thus: competition with 125I-labelled CXCL3 (GRO-g) for CXCR2 on human neutrophils. On the procedure: For ligand binding analysis, recombinant human GRO-g (“ligand”) was obtained from Peprotech (New Jersey, USA). 1251-Bolton-Hunter-labelled GRO-g was purchased from Perkin-Elmer (Boston, Mass., USA), with a specific activity of 2200 Ci/mM. Cells were washed once in binding buffer (50 mM Hepes, pH 7.5, 1 mM CaCI, 5 mM MgCb, 0.5% BSA) and resuspended in binding buffer at a concentration of 2.5×10^6 cells/ml. Cold Purified monoclonal antibody (cold competitor) was added to a 96-well plate followed by an equal volume (40 μl) binding buffer containing 1×10^5 cells. Cells and competitor were preincubated at room temperature for 15 min. Then radiolabeled ligand (final concentration 0.5-2 nM) was added to each well to give a final reaction volume of 120 μl. After a 60-min incubation at room temperature, the cells were washed three times with 1 ml of binding buffer containing 150 mM NaCl. The radioactivity (amount of bound label) in the cell pellets was counted in a TopCount liquid scintillation counter (Packard). Non-specific background binding was calculated by incubating cells […] radiolabelled-ligand. Samples were assayed in duplicate.

The target in another assay is T6, human CXCR7 (human, UniProt P25106 1-362).
T6 construct: whole, on cells; also called hCXCR7
T6 sequence (P25106 whole entry): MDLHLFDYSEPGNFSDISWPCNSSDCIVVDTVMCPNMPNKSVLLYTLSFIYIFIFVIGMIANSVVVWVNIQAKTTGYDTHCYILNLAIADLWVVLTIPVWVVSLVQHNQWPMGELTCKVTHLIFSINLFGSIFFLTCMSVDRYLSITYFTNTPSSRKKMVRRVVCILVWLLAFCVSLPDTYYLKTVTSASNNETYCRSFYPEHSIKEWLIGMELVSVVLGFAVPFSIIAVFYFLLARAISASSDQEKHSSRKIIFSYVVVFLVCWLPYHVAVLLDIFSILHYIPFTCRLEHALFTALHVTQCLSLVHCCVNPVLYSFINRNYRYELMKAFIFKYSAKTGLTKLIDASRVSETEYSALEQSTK
The assay can be described thus: flow cytometry on transfected cells. The protocol: (§3) To assess reactivity of mAbs against transfected cells, we used indirect immunofluorescence staining and flow cytometry. Cells were washed once with PBS and resuspended in 100 μl PBS containing 2% (wt/vol) BSA and 0.1% (wt/vol) sodium azide (staining buffer) and purified antibody. After 30 min at 4° C., cells were washed twice with staining buffer and resuspended in 50 μl PE-conjugated anti-human IgG (Jackson ImmunoResearch Laboratories) diluted 1:500 in staining buffer for the detection of humanized mAbs or 50 μl PE-conjugated anti-mouse IgG (Jackson ImmunoResearch Laboratories) for the detection of mouse mAbs. After incubating for 20 min at 4° C., cells were washed twice with staining buffer and analyzed on LSRII flow cytometer. 7-AAD staining was used to exclude dead cells.

The target of a further assay is T7, human CXCR3 (human, UniProt P49682 1-368).
T7 construct: whole, on cells; also called hCXCR3
T7 sequence (looked up): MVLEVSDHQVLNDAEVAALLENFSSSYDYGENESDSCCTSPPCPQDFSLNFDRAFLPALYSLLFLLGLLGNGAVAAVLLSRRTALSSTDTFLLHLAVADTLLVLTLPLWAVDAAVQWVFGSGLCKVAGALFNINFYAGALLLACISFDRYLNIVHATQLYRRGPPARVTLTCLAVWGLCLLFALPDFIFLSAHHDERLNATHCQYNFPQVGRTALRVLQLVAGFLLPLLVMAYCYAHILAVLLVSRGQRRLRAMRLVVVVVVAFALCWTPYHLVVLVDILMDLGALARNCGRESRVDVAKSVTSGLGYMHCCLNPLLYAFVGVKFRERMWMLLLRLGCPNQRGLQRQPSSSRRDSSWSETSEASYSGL
The assay can be described thus: flow cytometry on transfected cells. On the procedure:
as §3

For a further assay, the target named is T8, human CCR6 (human, UniProt P51684 1-374).
T8 construct: whole, on cells; also called hCCR6
T8 sequence (looked up): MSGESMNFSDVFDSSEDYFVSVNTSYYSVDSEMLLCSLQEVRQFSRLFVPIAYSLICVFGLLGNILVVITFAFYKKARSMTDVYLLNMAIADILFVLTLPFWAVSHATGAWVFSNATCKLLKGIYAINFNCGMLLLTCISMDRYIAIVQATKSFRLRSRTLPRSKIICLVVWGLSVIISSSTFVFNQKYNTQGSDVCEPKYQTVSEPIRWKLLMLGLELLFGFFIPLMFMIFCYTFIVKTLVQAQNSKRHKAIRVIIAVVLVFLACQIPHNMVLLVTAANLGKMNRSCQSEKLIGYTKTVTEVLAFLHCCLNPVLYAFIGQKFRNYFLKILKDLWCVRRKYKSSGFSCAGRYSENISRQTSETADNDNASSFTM
As to the kind of experiment: flow cytometry on transfected cells. On the procedure: as §3
Background: Flow cytometry measures light scatter and fluorescence of single cells or particles in a stream.

A further assay concerns the target T9, human CXCR1 (human, UniProt P25024 1-350).
T9 construct: whole, on cells; also called hCXCR1
T9 sequence (looked up): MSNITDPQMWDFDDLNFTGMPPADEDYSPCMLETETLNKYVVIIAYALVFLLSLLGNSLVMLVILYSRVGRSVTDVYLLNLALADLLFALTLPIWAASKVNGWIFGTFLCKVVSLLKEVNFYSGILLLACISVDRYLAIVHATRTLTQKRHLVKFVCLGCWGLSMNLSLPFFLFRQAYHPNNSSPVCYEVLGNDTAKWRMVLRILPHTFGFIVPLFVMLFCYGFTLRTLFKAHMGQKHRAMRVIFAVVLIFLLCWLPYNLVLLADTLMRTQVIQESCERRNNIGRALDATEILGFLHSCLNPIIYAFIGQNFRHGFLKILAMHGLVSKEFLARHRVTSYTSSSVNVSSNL
The assay can be described thus: flow cytometry on transfected cells. On the procedure: as §3

Assay [3] has as its target T5, human CXCR2. The assay can be described thus: flow cytometry on L1.2 hCXCR2 cells.
The target of assay [4] is T5, human CXCR2. The assay can be described thus: ELISA, L1.2 hCXCR2 cells.
Assay [5] addresses T10, human CXCR2 (UniProt P25025 1-360).
T10 chain: T5 sequence
The assay can be described thus: flow cytometry, CXCR2 L1.2 cells.

B1: m3H9 (antibody, mouse IgG3, V domains shown)
VH: QVQLQQSGPELVKPGASVKISCKASGYAFSNSWMNWVKQRPGKGLEWIGRIYPGDGNINYYGKFKDKATLTADKSSNTAYMQLSSLTSEDSAVYFCARSFLYVDFDYWGQGTTLTVSS
VL: VIVMTQTPLSLPVSLGDQASISCRSSQSLVHSNGNTYLQWYLQKPGQSPKLLIYKVSNRFSGVPDRFSGSGSGTDFTLKISRVEAEDLGVYFCSQGTHVPYTFGGGTKLEIKR
notes: also called mouse 3H9; purified mouse 3H9 mAb
As usually defined, the IC50 is the concentration that gives 50% inhibition. By EC50 is commonly meant the concentration giving half of the maximal effect. The low end stands for greater potency, the high end for weaker potency. As to B1, the binding result in [1] was “no binding”; with Peptide 2, “binds”; in the assay with Peptide 1, “binds”; with Peptide 3, “no binding”; in the assay with human CXCR7, “no binding”; with human CXCR3 it was “no binding”. Moreover, the binding result in the assay with human CCR6 and in the assay with human CXCR1 was “no binding” throughout. Besides, the IC50 with human CXCR2 [2] was determined as 0.7 nM. The figures for the concentration giving a half-maximal response (EC50) in the assay with human CXCR2 [3], with human CXCR2 [4] and with human CXCR2 [5] were 1.05 nM, 1.2 nM and 1.5 nM, respectively.

B2: h3H9 (antibody, V domains shown)
VH: QVQLVQSGAEVKKPGASVKVSCKASGYAFSNSWMNWVRQAPGQRLEWIGRIYPGDGNINYYGKFKDKATLTADKSANTAYMELSSLRSEDTAVYFCARSFLYVDFDYWGQGTTLTVSS
VL: B1 VL with V1D, T7S, S14T, L15P, D17E, Q18P, K50Q, L88V, G105Q
Molecule B2 returned an EC50 with human CXCR2 [5] of 2.2 nM.

B3: mCM2 (antibody, V domains shown)
VH: B1 VH with D104Y
VL: B1 VL with V1D, I2A, V56L, S72A, G96S
notes: Mouse hybridoma monoclonal antibody
B3: the binding result is “no binding” in assay [1]; “binds” with Peptide 2; “binds” with Peptide 1; “no binding” with Peptide 3; “no binding” in the assay with human CXCR7; “no binding” in the assay with human CXCR3. The binding result with human CCR6 and in the assay with human CXCR1 was “no binding” throughout. In the assay with human CXCR2 [2], this molecule returned an IC50 of 11.1 nM. In addition, the values for the EC50 with human CXCR2 [3] and with human CXCR2 [4] were 1.35 nM and 1.4 nM, respectively.

B4: m6G7 (antibody, V domains shown)
VH: B1 VH
VL: B1 VL with V1D, I2V, T7A, S28T
notes: as for B3
For the molecule B4, the binding result in assay [1] was “no binding”; in the assay with Peptide 2 it was “binds”; in the assay with Peptide 1, “binds”; with Peptide 3 it was “no binding”; with human CXCR7, “no binding”; with human CXCR3, “no binding”. In addition, the binding result in the assay with human CCR6 and with human CXCR1 was “no binding” throughout. The molecule further gave an IC50 with human CXCR2 [2] of 3.4 nM. The EC50 with human CXCR2 [3] turned out to be 1.28 nM; with human CXCR2 [4] it was 1.46 nM.
